In test [1] the target is T1, recombinant human CD38 his tagged (extracellular domain) (human, UniProt P28907 43-300).
T1 construct: also called rhCD38; rhCD38-his; not shown: Histidine tag
In words: Octet BLI, affinity, monovalent human CD38-HIS; IgG1. (In general: Biolayer interferometry detects binding as a change in optical thickness at a sensor tip.)

The target of test [2] is T2, human CD38 (full length, on cells) (human, UniProt P28907 1-300).
T2 construct: Endogenous on Daudi, Raji, Jurkat cells, human PBMC/T cells; full-length CD38 expressed in HEK-293T cells for alanine scanning; also called Uniprot P28907
In words: flow cytometry, binding to Daudi cells. In general terms: In flow cytometry, cells or beads pass a laser one at a time.

Test [3] deals with T1, recombinant human CD38 his tagged …. Description: summary, human CD38 extracellular protein.
Test [4] has the same target. In words: SPR Biacore 2000; IgG1 captured, rhCD38-his as analyte.
Description: (§1) Anti-human antibody was initially immobilised across all flow cells in analysis buffer (pH 7.4, 10mM HEPES, 150mM NaCl, 3mM EDTA, 0.05% Tween 20) to an RU of between 12,000-14,000 over 10 minutes. […] Dissociation was performed in analysis buffer over 10 minutes. Regeneration steps between sample concentrations were performed in 3M MgCl₂, three times for 0.5 minutes. A flow rate of 25 μl/min was maintained throughout the process. Kinetics data were fit using a global fit on the analysis software provided by Biacore with reference subtraction.
Test [5] has the same target. In words: Octet BLI affinity, rhCD38; Octet value of Table 5 (variant comparison); Table 1A gives 3.38E-09 for IgG1.
Test [6] shares this target. In words: SPR Biacore affinity, rhCD38-his. For orientation: In SPR one partner is held on a chip, and binding of the other changes the refractive index at the surface.
Description: as §1
In test [7] the target is T2, human CD38 (full length, on cells). Description: cell-based or functional assay.
Test [8] shares this target. Description: cell-based or functional assay. The source holds these as a separate data set.

“And” between values parts separate entries of the source, which are not always exact repeats. Equal entries are not always repeated.

B1: aCD38-b-329 (human IgG1) (antibody, V domains shown)
VH: QLQLQESGPGLVKPSETLSLTCTVSGGSISSSDYYWGWIRQPPGKGLEWIGSIYYSGSTYYNPSLKSRVTISVDTSKNQFSLKLSSVTAADTAVYYCARGQYSSGWYAYPFDMWGQGTMVTVSS
VL: EIVLTQSPGTLSLSPGERATLSCRASQSVRSSYLAWYQQKPGQAPRLLIYGASSRATGIPDRFSGSGSGTDFTLTISRLEPEDFAVYYCQQDGAVFTFGGGTKVEIK
notes: Human IgG1
With B1, the Kd (usually the free concentration of one partner at which half of the binding sites on the other are occupied at equilibrium, for simple one-to-one binding) in test [1] is 3.38 nM; in test [3], approximately 1 nM; in test [4] it was 0.62 nM; in test [5] it was 2.38 nM; in test [6] it was 0.62 nM. In addition, in test [2], the EC50 (as a rule, the midpoint of the concentration-response curve) was found to be 734 ng/mL. In test [2], the “Max MFI” value amounted to 2510 MFI. In test [7], the “ADCC target lysis EC50” value turned out to be 6.2 ng/mL. Besides, the “ADCC target lysis, max. % lysis” value in test [7] stood at 49%. Also, the “ADCC EC50, Daudi target cells” value in test [8] was 11 ng/mL and 6.2 ng/mL.

Values taken from patent US20200190209A1 (BLACK BELT THERAPEUTICS, published 2020).
